The target in this assay is T1, B型肉毒毒素抗原 (Clostridium Botulinum, UniProt P10844 2-1291).
T1 sequence: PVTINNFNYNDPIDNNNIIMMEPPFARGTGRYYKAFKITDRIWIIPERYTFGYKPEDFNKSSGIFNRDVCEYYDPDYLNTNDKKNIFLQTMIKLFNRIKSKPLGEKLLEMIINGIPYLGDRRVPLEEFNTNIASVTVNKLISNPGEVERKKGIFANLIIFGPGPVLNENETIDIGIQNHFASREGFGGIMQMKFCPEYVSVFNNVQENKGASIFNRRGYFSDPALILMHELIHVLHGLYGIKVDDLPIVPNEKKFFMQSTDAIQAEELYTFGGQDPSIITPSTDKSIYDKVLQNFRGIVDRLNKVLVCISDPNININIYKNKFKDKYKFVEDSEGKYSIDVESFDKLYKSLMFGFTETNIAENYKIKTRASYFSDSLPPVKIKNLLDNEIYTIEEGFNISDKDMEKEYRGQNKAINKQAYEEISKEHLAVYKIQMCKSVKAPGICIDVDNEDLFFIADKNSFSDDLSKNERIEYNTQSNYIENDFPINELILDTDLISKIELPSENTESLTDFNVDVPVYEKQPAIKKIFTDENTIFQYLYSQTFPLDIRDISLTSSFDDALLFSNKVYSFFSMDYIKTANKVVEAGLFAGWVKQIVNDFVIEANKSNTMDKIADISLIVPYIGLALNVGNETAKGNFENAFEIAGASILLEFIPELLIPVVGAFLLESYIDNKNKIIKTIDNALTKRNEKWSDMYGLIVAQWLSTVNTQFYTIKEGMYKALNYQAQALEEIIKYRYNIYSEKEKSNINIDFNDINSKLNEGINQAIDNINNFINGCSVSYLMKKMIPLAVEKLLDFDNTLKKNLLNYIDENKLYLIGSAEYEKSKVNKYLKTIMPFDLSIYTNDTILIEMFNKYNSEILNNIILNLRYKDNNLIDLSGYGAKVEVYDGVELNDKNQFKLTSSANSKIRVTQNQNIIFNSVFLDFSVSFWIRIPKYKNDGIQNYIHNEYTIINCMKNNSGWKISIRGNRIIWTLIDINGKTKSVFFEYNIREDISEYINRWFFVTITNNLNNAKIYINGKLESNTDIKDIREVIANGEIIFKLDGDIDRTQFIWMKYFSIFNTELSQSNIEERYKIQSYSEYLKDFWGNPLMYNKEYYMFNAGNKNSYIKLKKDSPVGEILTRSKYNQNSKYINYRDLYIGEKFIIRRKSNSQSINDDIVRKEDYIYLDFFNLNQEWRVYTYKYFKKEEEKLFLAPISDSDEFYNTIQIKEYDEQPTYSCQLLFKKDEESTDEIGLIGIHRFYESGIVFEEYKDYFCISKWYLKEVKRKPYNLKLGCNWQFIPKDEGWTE
The assay is described as follows: ELISA.

We go through one molecule from patent CN101045751A (INST OF MICROBIAL EPIDEMIC ACA, dated 2007).

B1: 人源抗A型肉毒神经毒素基因工程抗体 HuAb-BNa 单链抗体 (ScFv) (scFv)
scFv: QVQLQESGPGLVKPSETLSLTCTVSGGSISSGSYYWGWIRQPPGKGLEWIGSIYYSGSTYYNPSLKSRVTISVDTSKNQFSLMLSSVTAADTAVYYCARQGSSGYYQNWFDPWGQGTLVTVSSSGGGGSGGGGSGGGGDVVMTQSPGTLSLSPGERATLSCRASQSVSSSYLAWYQQKPGQAPRLLIYGASSRATGIPDRFSGSGSGTDFTLTISRPEPEDFAVYYCQQPGFTFGPGTKVEIKRTVAA
As to B1, the binding result is recorded as “no binding”.
